Experimental data reported in patent publication US20150219635A1 (UCB, published 2015).

Assays:
[1] = target: T1, Fcε3-4 (sub-fragment of IgE-Fc lacking the Cε2 domains) (human, UniProt P01854-1 209-428, limits assumed); test: ITC, Fcε3-4 titrated into Fab, 1:1 binding model
T1 construct: domain: Fcε3-4 (Cε3-Cε4); Production and any glycosylation site mutations not described
Protocol: (§1) Experiments were carried out using a Microcal iTC200 calorimeter (GE Healthcare) at 20° C. in PBS buffer pH 7.4. Depending on the final ratio required, 25-30 μM of protein was used in the calorimeter cell and 10-20 fold higher concentrations were used in the syringe. The number and volume of injections were varied as appropriate. Heats of dilution were subtracted from the data before analysis. […] Analyses were carried out using MicroCal Origin, using a 1:1 binding model when IgE-Fc or Fcε3-4 was titrated into Fab, or a sequential 1:1 binding model when Fab was titrated into IgE-Fc or Fcε3-4.
(§2) One way to establish experimentally that IgE-Fc adopts an […] as it flips between two bent conformations, is to determine the number of Fab binding sites that are available for binding: if rigidly and exclusively bent, only one site will initially be accessible, but if it can flip, then two sites are accessible. We therefore studied the interaction between Fab and IgE-Fc by isothermal titration calorimetry (ITC) and compared with the binding to Fcε3-4 which, lacking the Cε2 domains, always has two accessible sites.

[2] = target: T1, Fcε3-4 (sub-fragment of IgE-Fc lacking …); test: ITC, Fab titrated into Fcε3-4, sequential binding model; first Fab
Protocol: as §1, §2

[3] = target: T1, Fcε3-4 (sub-fragment of IgE-Fc lacking …); test: ITC, Fab titrated into Fcε3-4, sequential binding model; second Fab
Protocol: as §1, §2

[4] = target: T1, Fcε3-4 (sub-fragment of IgE-Fc lacking …); test: stopped-flow tryptophan fluorescence, Fcε3-4 in excess over Fab (1:1 complex)
Protocol: (§3) Experiments were carried out using a Chirascan Plus (Applied Photophysics Ltd) with a stopped-flow attachment at 20° C. in PBS buffer pH 7.4 and with pseudo-first order protein concentrations varied as required. Fluorescence was excited at 280 nm (1 nm slit width) and emitted fluorescence above 305 nm detected with a long-band pass. 6-10 runs were averaged for each experiment. Data were collected and analyzed using supplied software according to the manufacturer's instructions. Experimental transients were fitted either to single-exponential (Eq.1; [IgE-Fc] or [Fcε3-4]>[Fab] and only Fab¹ binding observable) or double-exponential (Eq.2; [Fab]>[IgE-Fc] or [Fcε3-4] and binding of both Fab¹ and Fab² observable) equations: […]
(§4) where F is the observed fluorescence, ΔFₙ is the fluorescence amplitude change for the nth transient, kobsn is the pseudo-first order rate constant for the nth step and Fₑ is the end-point fluorescence. The bimolecular association rate constants for Fab¹ (k₊₁) and Fab² (k₊₂) binding were determined by fitting the linear concentration dependences of kobs1 and kobs2 to Eq. 3: […]

[5] = target: T1, Fcε3-4 (sub-fragment of IgE-Fc lacking …); test: stopped-flow tryptophan fluorescence, Fab in excess over Fcε3-4, two-step binding; column kon
Protocol: as §3, §4

[6] = target: T1, Fcε3-4 (sub-fragment of IgE-Fc lacking …); test: stopped-flow tryptophan fluorescence, Fab in excess over Fcε3-4, two-step binding; column koff
Protocol: as §3, §4

[7] = target: T1, Fcε3-4 (sub-fragment of IgE-Fc lacking …); test: stopped-flow tryptophan fluorescence, Fab in excess over Fcε3-4, two-step binding; column kon2
Protocol: as §3, §4

T1 sequence (P01854 other isoform, or with tags, fused parts or gaps limits assumed): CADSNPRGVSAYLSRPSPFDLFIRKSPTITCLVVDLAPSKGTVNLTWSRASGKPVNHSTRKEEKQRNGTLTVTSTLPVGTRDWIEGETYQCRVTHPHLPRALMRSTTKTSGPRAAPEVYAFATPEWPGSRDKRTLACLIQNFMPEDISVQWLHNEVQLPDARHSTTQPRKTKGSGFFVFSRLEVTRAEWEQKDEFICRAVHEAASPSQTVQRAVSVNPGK

Kd [1]: 90 nM
Kd [2]: 34 nM
Kd [3]: 980 nM
kon [4]: 1e+06 M⁻¹ s⁻¹
kon [5]: 1e+06 M⁻¹ s⁻¹
koff [6]: 0.95 s⁻¹
kon [7]: 370000 M⁻¹ s⁻¹
B1: Fab7 (anti-human IgE Fab, human IgG1 Fab format) (Fab, V domains shown)
VH: QVQLQQSGPGLVKPSQTLSLTCGISGDSVSSNSAAWNWLRQSPSRGLEWLGRTYYRSKWYNDYAVSMKSRITINPDTSRNQFSLQLNSVTPEDTAVYYCARDGEISYDYYYYGMDVWGRGTLVTVSS
VL: QSVLTQPPSASGTPGQRVTISCSGSSSNIGNNGVNWYQQVPGKPPKLLIYYDDLLPSGVSDRFSGSKSGTSASLAISGLQSEDEADYYCEAWDDSLDGVVFGGGTKLTVLG
notes: Expressed transiently in CHO cells; also called anti-IgE Fab; Fab^1
